For data set [1], the system named is white mice (male mice of type NMRI). The data set is described as follows: Blood sugar level in mice after intravenous injection (anthrone method). Conditions: i.v.; for blood sugar level reduced to % of the normal value: in 30 minutes. Format: in vivo. The method, then:
Test animals were white mice (male mice of type NMRI) having a body weight of 25±2 g. The solutions below were administrated intravenously in the tails of the mice. There were three groups of mice, in which there were three mice each. The solutions contained:
Group A: 0.5 ml 0.9% (w/v) NaCl
Group B: 0.5 ml 0.9% (w/v) NaCl and 5 ug native insulin
Group C: 0.5 ml 0.9% (w/v) NaCl 50 ug insulin-2-pyridyl disulfide derivative synthesized as above.
Blood samples were collected in micro capillary tubes from the corners of the eyes of the mice. The samples were collected 10 minutes before injection and 30, 120, 240 minutes, 7, 15 and 24 hours on injection. The anthrone method was used to determine the carbohydrate content of the samples (Burt J R; Anal Biochem, 9 (1964) p 293-302).

The nature of data set [2]: Determination of half-life for circulation in rabbit (superoxide dismutase activity of blood samples). The note with it: i.v., 1 ml of 10 mg/ml. Format: in vivo. As to the method:
Test animals were white rabbits having a body weight of 2-5 kg. 1 ml native superoxide dismutase (yeast superoxide dismutase, Carlsberg Laboratories, Copenhagen, Denmark) (10 mg/ml) or 1 ml superoxide dismutase-2-pyridyl disulfide derivative (10 mg/ml) was injected intravenously into the rabbits. Both of the solutions were prepared from 0.9% (w/v) NaCl. Blood samples were collected from the ear lobes of the rabbits at the time intervals 5, 10, 20, 30, 60, 90, 120, 150, 180 and 210 minutes. The superoxide dismutase activity of the samples was determined according to Crapo J D, McCord J M and Fridovich I; Methods of Enzymology 53 (1978) p 382-393.

The nature of data set [3]: Half-life of circulating catalase activity in burnt rats (Clark electrode). Format: in vivo, rats (Sprague Dawley). Conditions: i.v., 20,000 IU, hind paws burnt 5 minutes after injection, catalase activity in blood. As to the method:
(§1) Test animals were white rats (Sprague Dawley) of a body weight of 300-350 g. Two groups of rats (6 individuals each) were separately injected intravenously with 0.5 ml 0.9% (w/v) NaCl containing 20,000 international units (IU) native catalase respectively an amount of catalase-2-dipyridyl disulfide derivative (synthesized as above) corresponding to 20,000 (IU) native catalase. 5 minutes after injection hind paws of all the rats were burnt by dipping into circulating water of +55° C. for 20 seconds. 0.4 ml blood was collected from the left arteriae carotis at the time intervals 2, 15, 30, 60, 120 and 180 minutes. The catalase activity in each blood sample was determined as the amount of oxygen formed per time unit. Measurements were carried out with a Clark electrode by standard procedures.

Data set [4] has as its system white rats (Sprague Dawley), burnt hind paws. The data set is described as follows: Oedema of the burn, measured as the volume of the paw. Format: in vivo. The note with it: i.v., amount corresponding to 20,000 IU, in 2 hours. As to the method:
as §1
The oedema of the burn was measured as the volume of the paw. This volume was measured as corresponding deplacement at even time cuts during 3 hours.

We go through 6 molecules from patent US4711951A, “Therapeutically active compound and pharmaceutical composition containing the same” (priority 1981, dated 1987).

Turning to “insulin-2-pyridyl disulfide derivative: insulin reacted with N-succinimidyl-3-(2-pyridyldithio)-propionate (SPDP)”, in data set [1] (50 ug derivative (group C)), the “time until blood sugar level returned to normal values” is greater than 24 h and the “blood sugar level reduced to % of the normal value” is on record as 40 % of the normal value.
Consider “native insulin: native insulin, underivatized base compound used as comparison”, for which, in data set [1] (5 ug native insulin (group B)), the “time until blood sugar level reached the normal value (value before injection)” value is 7 h and the “blood sugar level reduced to % of the normal value” is recorded as 40 % of the normal value.

B1: native superoxide dismutase: yeast superoxide dismutase, Carlsberg Laboratories, Copenhagen, Denmark (protein, UniProt P00445 2-154, looked up)
Superoxide dismutase [Cu-Zn]: VQAVAVLKGDAGVSGVVKFEQASESEPTTVSYEIAGNSPNAERGFHIHEFGDATNGCVSAGPHFNPFKKTHGAPTDEVRHVGDMGNVKTDENGVAKGSFKDSLIKLIGPTSVVGRSVVIHAGQDDLGKGDTEESLKTGNAGPRPACGVIGLTN
B1: the half-life for circulation result in data set [2] is “about 10 minutes”.

B2: superoxide dismutase-2-pyridyl disulfide derivative: superoxide dismutase from yeast reacted with SPDP (protein, UniProt P00445 2-154, looked up)
Superoxide dismutase [Cu-Zn]: B1 Superoxide dismutase [Cu-Zn]
modifications: SPDP 2-pyridyl disulfide derivative
notes: superoxide dismutase from yeast reacted with SPDP
In the case of B2, the half-life for circulation in data set [2] came to 60 min.

B3: native catalase: catalase of bovine liver (Sigma C-100), further purified by gel filtration (protein, UniProt P00432 2-527, looked up)
Catalase: ADNRDPASDQMKHWKEQRAAQKPDVLTTGGGNPVGDKLNSLTVGPRGPLLVQDVVFTDEMAHFDRERIPERVVHAKGAGAFGYFEVTHDITRYSKAKVFEHIGKRTPIAVRFSTVAGESGSADTVRDPRGFAVKFYTEDGNWDLVGNNTPIFFIRDALLFPSFIHSQKRNPQTHLKDPDMVWDFWSLRPESLHQVSFLFSDRGIPDGHRHMNGYGSHTFKLVNANGEAVYCKFHYKTDQGIKNLSVEDAARLAHEDPDYGLRDLFNAIATGNYPSWTLYIQVMTFSEAEIFPFNPFDLTKVWPHGDYPLIPVGKLVLNRNPVNYFAEVEQLAFDPSNMPPGIEPSPDKMLQGRLFAYPDTHRHRLGPNYLQIPVNCPYRARVANYQRDGPMCMMDNQGGAPNYYPNSFSAPEHQPSALEHRTHFSGDVQRFNSANDDNVTQVRTFYLKVLNEEQRKRLCENIAGHLKDAQLFIQKKAVKNFSDVHPEYGSRIQALLDKYNEEKPKNAVHTYVQHGSHLSAREKANL
Take B3: the “half-life for circulating catalase” value in data set [3] was found to be 9 min.

B4: catalase-2-pyridyl disulfide: purified catalase of bovine liver reacted with SPDP (protein, UniProt P00432 2-527, looked up)
Catalase: B3 Catalase
modifications: SPDP 2-pyridyl disulfide derivative
notes: purified catalase of bovine liver reacted with SPDP
With B4, in data set [4], the “swelling of the burnt paws compared to native catalase” value was “significantly decreased swelling”. The “half-life for circulating catalase” value in data set [3] came out at 34 min.
